This data set deals with the molecule itself. The experiment in a line: co-IP; competitive co-IP: HEK293T transfected with equimolar DNA of three constructs (one bait with one tag, Human and Chimp prey with the other tag); IP against the bait's tag, western blot against the prey's tag; replicated with reversed tags. In general terms: A western blot detects proteins with antibodies after separation by electrophoresis.

A value given as a limit tells only on which side of the number the result lay.

B1: full-length human PRDM9 (B allele), C-terminally tagged with HA or V5 (natural protein)
chain: not shown
notes: 218 synonymous base changes in the zinc finger exon; An HA and a V5 version were made; The C-terminal cassette is linker-TwinStrep-linker-HA/V5-linker-P2A followed by YFP; vector pLENTI CMV/TO Puro DEST (Addgene plasmid # 17293); YFP probably separates at the P2A site (surmised); also called Human-HA; Human-V5; source: HEK293T, transfected (FuGENE-HD), in lysate; not shown: HA or V5, C-terminal, …
Consider B1, for which the “fold more efficiently co-precipitated than the Chimp prey (Human bait)” value is greater than 2 fold.

The values are drawn from doi:10.1101/144295, “Human PRDM9 can bind and activate promoters, and other zinc-finger proteins associate with reduced recombination in cis” (bioRxiv, 2017).
